Test results taken from article doi:10.1101/2025.05.01.651538.

Biological target: wild-type unmodified 147bp nucleosome (nucleosome core particle, human histones)
Experiment: EMSA
Settings: chain shown with the change; 0-32 µM KDM5A^MutR titrated against 147bp nucleosome

B1: KDM5A^CAT (KDM5A 1–801, minimal catalytically active construct), P29375 R210A; R217A; R219A; R220A; R232A; R264A; R265A; R266A; R271A; R280A; R282A (protein)
chain: MAGVGPGGYAAEFVPPPECPVFEPSWEEFTDPLSFIGRIRPLAEKTGICKIRPPKDWQPPFACEVKSFRFTPRVQRLNELEAMTRVRLDFLDQLAKFWELQGSTLKIPVVERKILDLYALSKIVASKGGFEMVTKEKKWSKVGSRLGYLPGKGTGSLLKSHYERILYPYELFQSGVSLMGVQMPNLDLKEKVEPEVLSTDTQTSPEPGTAMNILPKATAAVKTQSESGDVSANTELKKLQIFGAGPKVVGLAMGTKDKEDEVTAAAKVTNASDAFNMQMAQAKGTLSVNFVDLYVCMFCGRGNNEDKLLLCDGCDDSYHTFCLIPPLPDVPKGDWRCPKCVAEECSKPREAFGFEQAVREYTLQSFGEMADNFKSDYFNMPVHMVPTELVEKEFWRLVSSIEEDVIVEYGADISSKDFGSGFPVKDGRRKILPEEEEYALSGWNLNNMPVLEQSVLAHINVDISGMKVPWLYVGMCFSSFCWHIEDHWSYSINYLHWGEPKTWYGVPSHAAEQLEEVMRELAPELFESQPDLLHQLVTIMNPNVLMEHGVPVYRTNQCAGEFVVTFPRAYHSGFNQGYNFAEAVNFCTADWLPIGRQCVNHYRRLRRHCVFSHEELIFKMAADPECLDVGLAAMVCKELTLMTEEETRLRESVVQMGVLMSEEEVFELVPDDERQCSACRTTCFLSALTCSCNPERLVCLYHPTDLCPCPMQKKCLRYRYPLEDLPSLLYGVKVRAQSYDTWVSRVTEALSANFNHKKDLIELRVMLEDAEDRKYPENDLFRKLRDAVKEAETCASVAQLL
  Kd: 14 µM
